Measurements reported in US10925971B2, “Methods of treating PRLR positive breast cancer” (Regeneron Pharmaceuticals, Inc., priority 2016, dated 2021).

How the values were obtained:
[1] = target: T1, monkey PRLR on HEK293/mfPRLR cells (Macaca fascicularis, UniProt A0A2K5WXK1); assay: FACS cell surface binding
T1 construct: HA; expressed in transfected cells; host or cells: HEK293
T1 sequence (A0A2K5WXK1 25-619): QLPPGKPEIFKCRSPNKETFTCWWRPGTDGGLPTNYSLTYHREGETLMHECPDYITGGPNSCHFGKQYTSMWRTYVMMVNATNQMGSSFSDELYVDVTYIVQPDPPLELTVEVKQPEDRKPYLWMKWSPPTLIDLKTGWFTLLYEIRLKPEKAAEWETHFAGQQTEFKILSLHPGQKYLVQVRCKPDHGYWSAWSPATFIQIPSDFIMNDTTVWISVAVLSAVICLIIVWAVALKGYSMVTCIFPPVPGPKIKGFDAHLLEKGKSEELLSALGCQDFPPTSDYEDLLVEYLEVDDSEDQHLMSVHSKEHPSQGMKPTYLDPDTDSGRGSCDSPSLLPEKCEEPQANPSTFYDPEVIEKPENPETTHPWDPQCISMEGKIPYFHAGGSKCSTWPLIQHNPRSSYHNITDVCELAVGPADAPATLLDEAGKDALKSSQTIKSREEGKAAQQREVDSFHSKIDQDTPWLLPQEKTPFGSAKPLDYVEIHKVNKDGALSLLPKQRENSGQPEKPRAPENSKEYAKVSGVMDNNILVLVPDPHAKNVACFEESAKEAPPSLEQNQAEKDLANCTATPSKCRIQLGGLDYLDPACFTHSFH
Procedure: (§1) The ability of anti-PRLR antibodies to selectively bind PRLR expressing cell lines was next determined. Human, monkey Macaca fascicularis, and mouse PRLR constructs with an HA tag were stably introduced into HEK293 cells via Lipofectamine 2000-mediated transfection methodology. Transfectants (HEK293/hPRLR, HEK293/mfPRLR and HEK293/mPRLR) were selected for at least 2 weeks in complete growth media plus G418.
(§2) Cell surface expression of PRLR on 293/hPRLR cells was assessed via FACS analysis. Briefly, 1×10^5 cells were incubated with 10 μg/ml of Control antibody I, or an isotype control for 30 min on ice in antibody dilution buffer. Following two washes with antibody dilution buffer, cells were incubated with 10 μg/ml of PE conjugated anti-human secondary antibodies for 30 min on ice. Following two additional washes, samples were run on a Hypercyt® cytometer and analyzed in ForeCyt™ (IntelliCyt, Albuquerque, N. Mex.). The mean fluorescence intensities (MFI) were expressed as fold change above isotype control levels (background). FACS binding confirmed that Control I selectively bound to 293/hPRLR expressing cells with MFIs that were 30 fold above background (isotype ctrl) levels and less than 2 fold binding on parental cells.
(§3) Next, the anti-PRLR antibodies were tested via FACS for selective binding to the engineered overexpressing PRLR HEK293 cell lines, as well as to non-expressing HEK293 cells and a native PRLR expressing cell line (T47D).

[2] = target: T2, human PRLR on HEK293/hPRLR cells (Homo sapiens, UniProt P16471); assay: FACS cell surface binding
T2 construct: HA; expressed in transfected cells; host or cells: HEK293
T2 sequence (P16471 25-622): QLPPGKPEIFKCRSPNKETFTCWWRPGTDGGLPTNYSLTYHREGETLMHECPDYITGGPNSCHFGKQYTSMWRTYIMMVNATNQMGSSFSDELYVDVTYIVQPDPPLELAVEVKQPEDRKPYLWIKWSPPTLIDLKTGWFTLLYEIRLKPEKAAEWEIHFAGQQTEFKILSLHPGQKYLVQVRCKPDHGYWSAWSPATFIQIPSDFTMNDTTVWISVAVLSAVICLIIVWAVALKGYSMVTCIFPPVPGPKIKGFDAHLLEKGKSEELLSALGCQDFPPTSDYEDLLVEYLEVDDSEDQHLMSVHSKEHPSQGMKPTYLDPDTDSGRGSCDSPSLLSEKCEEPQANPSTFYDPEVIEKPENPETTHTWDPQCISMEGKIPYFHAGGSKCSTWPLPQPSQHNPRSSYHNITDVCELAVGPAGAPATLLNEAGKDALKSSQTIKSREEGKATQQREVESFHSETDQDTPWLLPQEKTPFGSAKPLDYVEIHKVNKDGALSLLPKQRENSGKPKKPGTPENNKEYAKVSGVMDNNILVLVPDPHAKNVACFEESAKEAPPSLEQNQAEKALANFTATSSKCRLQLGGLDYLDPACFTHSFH
Procedure: as §1, §2, §3

[3] = target: T3, mouse PRLR on HEK293/mPRLR cells (Mus musculus, UniProt Q08501); assay: FACS cell surface binding
T3 construct: HA; expressed in transfected cells; host or cells: HEK293
T3 sequence (Q08501 20-608): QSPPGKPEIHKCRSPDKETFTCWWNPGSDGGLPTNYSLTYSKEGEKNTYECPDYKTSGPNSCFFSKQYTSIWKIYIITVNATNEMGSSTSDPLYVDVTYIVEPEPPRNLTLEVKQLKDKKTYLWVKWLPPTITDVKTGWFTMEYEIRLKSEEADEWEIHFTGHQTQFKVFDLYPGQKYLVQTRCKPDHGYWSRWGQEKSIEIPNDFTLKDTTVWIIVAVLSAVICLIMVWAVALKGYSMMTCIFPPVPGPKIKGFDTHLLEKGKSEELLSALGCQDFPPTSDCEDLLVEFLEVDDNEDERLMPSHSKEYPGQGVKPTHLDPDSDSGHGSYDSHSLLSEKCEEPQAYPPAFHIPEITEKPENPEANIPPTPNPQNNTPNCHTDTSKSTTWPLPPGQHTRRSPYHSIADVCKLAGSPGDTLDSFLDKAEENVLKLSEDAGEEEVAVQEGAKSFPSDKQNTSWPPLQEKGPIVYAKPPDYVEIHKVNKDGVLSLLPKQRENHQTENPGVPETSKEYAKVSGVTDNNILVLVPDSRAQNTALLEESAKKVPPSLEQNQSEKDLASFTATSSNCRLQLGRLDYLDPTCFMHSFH
Procedure: as §1, §2, §3

HEK293 parental cells = assay: FACS cell surface binding; set-up: species or system human
Procedure: as §1, §2, §3

[4] = target: T4, native PRLR expressing T47D cells (Homo sapiens, UniProt P16471); assay: FACS cell surface binding
T4 construct: a native PRLR expressing cell line (T47D); endogenous in cells; host or cells: T47D
T4 sequence (P16471 25-622): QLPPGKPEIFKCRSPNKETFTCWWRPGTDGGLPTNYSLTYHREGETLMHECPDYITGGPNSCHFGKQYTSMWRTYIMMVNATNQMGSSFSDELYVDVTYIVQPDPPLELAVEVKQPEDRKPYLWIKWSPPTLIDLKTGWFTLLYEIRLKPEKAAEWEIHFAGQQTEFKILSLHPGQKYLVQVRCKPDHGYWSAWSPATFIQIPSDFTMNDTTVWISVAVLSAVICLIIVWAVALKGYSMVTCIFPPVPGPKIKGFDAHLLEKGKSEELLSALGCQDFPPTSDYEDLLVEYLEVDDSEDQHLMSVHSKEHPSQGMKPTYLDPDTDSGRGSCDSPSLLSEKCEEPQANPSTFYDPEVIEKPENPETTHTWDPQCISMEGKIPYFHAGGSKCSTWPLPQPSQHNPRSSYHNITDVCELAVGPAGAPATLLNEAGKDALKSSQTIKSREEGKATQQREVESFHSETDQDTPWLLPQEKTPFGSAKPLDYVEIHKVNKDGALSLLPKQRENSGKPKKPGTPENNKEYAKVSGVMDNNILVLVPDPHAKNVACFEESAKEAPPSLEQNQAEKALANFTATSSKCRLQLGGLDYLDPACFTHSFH
Procedure: as §2, §3

[5] = target: T5, monomeric human PRLR (hPRLR.mmh; SEQ ID NO:401) (Homo sapiens, UniProt P16471); assay: Surface plasmon resonance (Biacore T200), antibody-capture format; type: binding; settings: analyte hPRLR.mmh
T5 construct: soluble monomeric (hPRLR.mmh); mmh (myc-myc-hexahistidine) (C)
T5 sequence (P16471 with tags, fused parts or gaps): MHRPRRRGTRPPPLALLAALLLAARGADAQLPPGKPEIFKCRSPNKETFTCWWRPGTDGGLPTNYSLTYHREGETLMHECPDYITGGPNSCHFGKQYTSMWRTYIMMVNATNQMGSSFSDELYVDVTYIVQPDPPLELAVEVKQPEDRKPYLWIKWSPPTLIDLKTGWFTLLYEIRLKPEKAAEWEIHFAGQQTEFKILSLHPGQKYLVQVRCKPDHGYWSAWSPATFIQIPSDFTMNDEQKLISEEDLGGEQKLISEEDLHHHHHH
Procedure: (§4) Antibodies, expressed as human IgG1 Fc (i.e., “H1H” designations), were captured onto an anti-human Fc sensor surface (mAb-capture format), and soluble monomeric (hPRLR.mmh; SEQ ID NO:401, or Macaca fascicularis (mf) PRLR.mmh; SEQ ID NO:403) or dimeric (hPRLR.mFc; SEQ ID NO:402) PRLR protein was injected over the sensor surface. Measurements were conducted on a T200 Biacore instrument. Kinetic association (ka) and dissociation (kd) rate constants were determined by processing and fitting the data to a 1:1 binding model using Scrubber 2.0 curve fitting software.

[6] = system: Macaca fascicularis PRLR (mfPRLR.mmh; SEQ ID NO:403); assay: as above; type: binding; settings: analyte mfPRLR.mmh
Chain of Macaca fascicularis PRLR (mfPRLR.mmh; SEQ ID NO:403) (as listed by the source): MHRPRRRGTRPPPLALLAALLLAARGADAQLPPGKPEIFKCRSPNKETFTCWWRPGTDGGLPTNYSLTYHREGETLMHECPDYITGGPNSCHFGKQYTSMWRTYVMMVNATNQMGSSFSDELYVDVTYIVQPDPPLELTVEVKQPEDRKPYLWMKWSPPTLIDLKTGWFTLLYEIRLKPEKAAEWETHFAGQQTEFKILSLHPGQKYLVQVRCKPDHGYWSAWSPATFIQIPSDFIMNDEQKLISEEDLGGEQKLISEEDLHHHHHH
Procedure: as §4

[7] = target: T6, dimeric human PRLR (hPRLR.mFc; SEQ ID NO:402) (Homo sapiens, UniProt P16471); assay: as above; type: binding; settings: analyte hPRLR.mFc
T6 construct: dimeric (hPRLR.mFc)
T6 sequence (P16471 with tags, fused parts or gaps): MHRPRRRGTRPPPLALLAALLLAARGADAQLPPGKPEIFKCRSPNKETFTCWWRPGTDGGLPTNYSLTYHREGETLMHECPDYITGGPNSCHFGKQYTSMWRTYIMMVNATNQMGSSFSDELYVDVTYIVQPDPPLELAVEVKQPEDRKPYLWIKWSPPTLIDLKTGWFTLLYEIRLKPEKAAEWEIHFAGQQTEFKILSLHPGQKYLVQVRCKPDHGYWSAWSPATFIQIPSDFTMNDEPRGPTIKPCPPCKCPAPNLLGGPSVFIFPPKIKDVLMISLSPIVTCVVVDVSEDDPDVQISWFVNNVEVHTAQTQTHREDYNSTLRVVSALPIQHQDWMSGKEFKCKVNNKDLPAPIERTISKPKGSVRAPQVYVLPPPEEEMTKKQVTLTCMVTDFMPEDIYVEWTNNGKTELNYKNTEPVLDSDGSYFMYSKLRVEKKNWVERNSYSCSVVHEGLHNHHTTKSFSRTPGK
Procedure: as §4

| Molecule | FACS Cell Binding [1] [Fold Above Background] | FACS Cell Binding [2] [Fold Above Background] | FACS Cell Binding [3] [Fold Above Background] | FACS Cell Binding (HEK293 parental cells) [Fold Above Background] | FACS Cell Binding [4] [Fold Above Background] | ka ([5]; 25° C.) [M/s] | kd ([5]; 25° C.) [s⁻¹] | ka ([5]; 37° C.) [M/s] | kd ([5]; 37° C.) [s⁻¹] | ka ([6]; 25° C.) [M/s] | kd ([6]; 25° C.) [s⁻¹] | ka ([6]; 37° C.) [M/s] | kd ([6]; 37° C.) [s⁻¹] | ka ([7]; 25° C.) [M/s] | kd ([7]; 25° C.) [s⁻¹] | ka ([7]; 37° C.) [M/s] | kd ([7]; 37° C.) [s⁻¹] |
| --- | --- | --- | --- | --- | --- | --- | --- | --- | --- | --- | --- | --- | --- | --- | --- | --- | --- |
| H1H6762P: fully human anti-PRLR antibody, human IgG1 Fc; HCVR/LCVR SEQ ID NOs 2/10 (antibody, V domains shown) VH: QVQLVESGGGVVQPGRSLRLSCAASGFTFSHYGMVWVRQPPGKGLEWVALISFDGTTKYYADSVKGRFTISRDNSKNTLYLQMNSLRAEDTAVYFCVGAIAAAAFDLWGRGTLVTVSS VL: EIVMTQSPATLSVSPGERATLSCRASQSVSSDLAWYQQKPGQAPRLLIYSASARATGIPARFTGSGSGTDFTLTISSLQSEDFAVYYCQQYNNWPMYTFGQGTKLEIK | 26 | 36 | 2 | 1 | 38 | 692000 | 0.000179 | 948000 | 0.000455 | 408000 | 0.000208 | 679000 | 0.000558 | 651000 | 6.45e-05 | 801000 | 0.000103 |
| H1H6781P: fully human anti-PRLR antibody, human IgG1 Fc; HCVR/LCVR SEQ ID NOs 50/58 (antibody, V domains shown) VH: EVQLVESGGDLVQPGESLRLSCTASGFTFNSYEMNWVRQAPGKGLEWVSYISSSGGTKYYVDSVKGRFTISRDNAKKSLYLQMNSLRADDTALYYCARLNGVDVFDIWGQGTMVTVSS VL: DIQMTQSPSSLSASVGDRVTITCRASQDIFNYLAWFQQKPGKVPELLISAASTLQSGVPSRFSGSGSGTYFTLTISSLQPEDIATYYCQRYNSAPLTFGGGTKVEIK | 26 | 37 | 1 | 1 | 40 | 208000 | 0.000127 | 339000 | 0.000309 | 143000 | 0.000141 | 247000 | 0.000267 | 257000 | 6.05e-05 | 436000 | 9.84e-05 |
| H1H6785P: fully human anti-PRLR antibody, human IgG1 Fc; HCVR/LCVR SEQ ID NOs 98/106 (antibody, V domains shown) VH: EVQLVESGGGLVQPGGSLRLSCAASGFTFSSYEMNWVRQAPGKGLEWISYISSRGGTIYYADSIKGRFTIYRDNARNSLYLQMNSLRAEDTAIYYCARLSGVDIFDIWGQGTMVTVSS VL: DIQMTQSPSSLSASVGDRVTITCRASQGISNYLAWYQQKPGKVPKLLIYFASTLQSGVPSRFSGGGSGTDFTLTISSLQPEDVATYYCQRYNSAPLTFGGGTKVEIK | 26 | 37 | 2 | 1 | 40 | 301000 | 0.000171 | 426000 | 0.000484 | 227000 | 0.000167 | 297000 | 0.00045 | 263000 | 6.07e-05 | 456000 | 0.000117 |
